# According to patent publication US20250019737A1 (TECHNOLOGY INNOVATION MOMENTUM FUND ISRAEL LIMITED …, published 2025):
# Biological target: T1, Ubiquitin R42E, R72E, untagged free mono-Ub (Homo sapiens (Human), UniProt P0CG47 1-76)
# T1 construct: also called Ub R42E, R72E
# Assay: SPR, immobilized His6-MBP-ENTH on Ni2+ chip, Ub mutant as analyte, single-site model
binder,measurement,value
"His6-MBP-ENTH, ENTH domain of yeast Ent1(1-152) (other, yeast (Saccharomyces cerevisiae), UniProt Q12518 1-152, looked up, not shown: small tags and cut ends; large carriers, range 1-152; also called yeast ENTH) MSKQFVRSAKNLVKGYSSTQVLVRNATSNDNHQVSKDSLIELAEKSYDSADFFEIMDMLDKRLNDKGKYWRHIAKALTVIDYLIRFGSENCVLWCRENLYIIKTLKEFRHEDDEGIDQGQIVRVKAKELTALLSDDERLNEERNMNIKGRNR",fold lower affinity than the wild-type complex,~2.6 fold
